Results published in patent US20150030697A1.

Columns and labels:
[1] = biological target: Guanylate cyclase C (GC-C) (human), P25092
[2] = biological target: Guanylate cyclase C (GC-C) (human), P25092; experiment: cell-based or functional assay

Sequence of Guanylate cyclase C (GC-C) (human), P25092 (P25092 24-1073): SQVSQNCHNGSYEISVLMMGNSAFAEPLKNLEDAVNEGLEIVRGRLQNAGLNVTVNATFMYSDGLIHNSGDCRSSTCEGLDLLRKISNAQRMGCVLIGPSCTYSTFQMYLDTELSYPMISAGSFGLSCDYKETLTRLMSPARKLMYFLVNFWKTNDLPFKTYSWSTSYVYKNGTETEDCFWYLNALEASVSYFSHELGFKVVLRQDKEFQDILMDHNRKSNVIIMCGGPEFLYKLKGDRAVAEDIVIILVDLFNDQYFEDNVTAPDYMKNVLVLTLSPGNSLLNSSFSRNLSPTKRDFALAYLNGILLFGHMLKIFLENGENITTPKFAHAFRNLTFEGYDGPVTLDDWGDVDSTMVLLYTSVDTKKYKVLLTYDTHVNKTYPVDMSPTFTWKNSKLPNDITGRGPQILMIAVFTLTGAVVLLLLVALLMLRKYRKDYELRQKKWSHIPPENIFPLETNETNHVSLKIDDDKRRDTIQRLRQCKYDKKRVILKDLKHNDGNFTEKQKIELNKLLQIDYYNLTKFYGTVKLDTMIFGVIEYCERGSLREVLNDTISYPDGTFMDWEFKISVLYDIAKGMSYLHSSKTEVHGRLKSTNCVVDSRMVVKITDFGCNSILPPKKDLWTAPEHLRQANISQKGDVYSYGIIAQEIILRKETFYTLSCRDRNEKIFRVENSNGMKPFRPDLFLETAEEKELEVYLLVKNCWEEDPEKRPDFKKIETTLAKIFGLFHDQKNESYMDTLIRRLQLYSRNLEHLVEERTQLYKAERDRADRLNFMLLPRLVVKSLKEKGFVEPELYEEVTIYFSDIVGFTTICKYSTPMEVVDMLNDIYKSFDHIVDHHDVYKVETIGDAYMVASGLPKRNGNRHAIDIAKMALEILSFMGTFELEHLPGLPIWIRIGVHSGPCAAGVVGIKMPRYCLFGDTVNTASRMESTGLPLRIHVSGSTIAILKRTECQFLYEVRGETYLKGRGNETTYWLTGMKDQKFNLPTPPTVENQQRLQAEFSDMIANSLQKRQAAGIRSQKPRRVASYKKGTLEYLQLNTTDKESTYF

**Q.** What does the source list for CCELCCNPACTGCY (modifications not checked) [Peptide 3]?
**A.** Ki [1]: 1.2 nM; EC50 at pH 5 (nM), cGMP response of T84 cells [2]: 16 nM
